In this assay the target is recombinant Bfl-1 protein (UniProt Q16548). In words: fluorescence polarisation; direct binding of the fluorescent Bid probe to recombinant protein; Ex 485 nm, Em 530 nm, room temperature; buffer of the Kd determination not told apart from the two competitive assay buffers.
recombinant Bfl-1 protein, sequence (Q16548 whole entry): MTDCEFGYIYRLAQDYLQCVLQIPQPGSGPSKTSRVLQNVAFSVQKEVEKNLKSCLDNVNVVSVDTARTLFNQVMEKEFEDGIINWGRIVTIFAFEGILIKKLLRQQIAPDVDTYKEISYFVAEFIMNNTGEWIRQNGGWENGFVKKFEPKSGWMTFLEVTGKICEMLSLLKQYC

Take fluorescent labelled Bid BH3 peptide: the Kd came to 300 pM.

The record behind these values is article PMC6033896, “Discovery of Mcl-1 inhibitors from integrated high throughput and virtual screening” (Scientific Reports, 2018).
